B1: C10orf62 (parent)
chain: TSECPSDKDKSPESHKAKNESWIK
B2: TRIM43 (parent)
chain: FCDMDKSLLCLLCSNSQEHGAHKH

Variants of: B1
Experiment: protein stability index of a GFP-peptide fusion (GPS, HEK-293T) (PSI 1-6); higher = more stable
Details: c terminus: a fixed tail appended
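Note: lentivirally expressed fusions sorted by FACS into six bins by GFP to DsRed ratio, PSI derived from sequencing read proportions per bin multiplied by bin number.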

| Variant | protein stability index |
| --- | --- |
| TSECPSDKDKSPESHKAKNESVIK | 5.79 |
| TSECPSDKDKSPESHKAKNESQIK | 5.8 |
| TSECPSDKDKSPESHKAKNESIIK | 5.72 |
| TSECPSDKDKSPESHKAKNESKIK | 5.46 |
| TSECPSDKDKSPESHKAKNESAIK | 5.34 |
| TSECPSDKDKSPESHKAKNESEIK | 5.67 |
| TSECPSDKDKSPESHKAKNESFIK | 5.62 |
| TSECPSDKDKSPESHKAKNESHIK | 5.83 |
| TSECPSDKDKSPESHKAKNESNIK | 5.73 |
| TSECPSDKDKSPESHKAKNESTIK | 5.54 |
| TSECPSDKDKSPESHKAKNESLIK | 4.7 |
| TSECPSDKDKSPESHKAKNESCIK | 5.18 |
| TSECPSDKDKSPESHKAKNESRIK | 5.84 |
| TSECPSDKDKSPESHKAKNESYIK | 5.23 |
| TSECPSDKDKSPESHKAKNESPIK | 5.54 |
| TSECPSDKDKSPESHKAKNESGIK | 5.58 |
| TSECPSDKDKSPESHKAKNESMIK | 5.6 |
| TSECPSDKDKSPESHKAKNESDIK | 5.78 |
| TSECPSDKDKSPESHKAKNESSIK | 5.82 |
| TSECPSDKDKSPESHKAKNESWAK | 3.68 |
| TSECPSDKDKSPESHKAKNESWVK | 1.74 |
| TSECPSDKDKSPESHKAKNESWSK | 3.79 |
| TSECPSDKDKSPESHKAKNESWKK | 4.59 |

| Variant | protein stability index |
| --- | --- |
| TSECPSDKDKSPESHKAKNESWGK | 5.32 |
| TSECPSDKDKSPESHKAKNESWFK | 5.32 |
| TSECPSDKDKSPESHKAKNESWYK | 5.21 |
| TSECPSDKDKSPESHKAKNESWTK | 3.33 |
| TSECPSDKDKSPESHKAKNESWHK | 5.18 |
| TSECPSDKDKSPESHKAKNESWCK | 2.89 |
| TSECPSDKDKSPESHKAKNESWNK | 5.17 |
| TSECPSDKDKSPESHKAKNESWQK | 2.89 |
| TSECPSDKDKSPESHKAKNESWPK | 5.81 |
| TSECPSDKDKSPESHKAKNESWEK | 3.96 |
| TSECPSDKDKSPESHKAKNESWRK | 5.25 |
| TSECPSDKDKSPESHKAKNESWLK | 4.46 |
| TSECPSDKDKSPESHKAKNESWWK | 5.11 |
| TSECPSDKDKSPESHKAKNESWMK | 4.7 |
| TSECPSDKDKSPESHKAKNESWDK | 5.72 |
| TSECPSDKDKSPESHKAKNEVWIK | 4.47 |
| TSECPSDKDKSPESHKAKNEMWIK | 4.36 |
| TSECPSDKDKSPESHKAKNEYWIK | 4.3 |
| TSECPSDKDKSPESHKAKNECWIK | 4.11 |
| TSECPSDKDKSPESHKAKNEDWIK | 5.57 |
| TSECPSDKDKSPESHKAKNEWWIK | 4.49 |
| TSECPSDKDKSPESHKAKNEAWIK | 4.61 |
| TSECPSDKDKSPESHKAKNEHWIK | 4.95 |

| Variant | protein stability index |
| --- | --- |
| TSECPSDKDKSPESHKAKNEEWIK | 5.3 |
| TSECPSDKDKSPESHKAKNEGWIK | 4.34 |
| TSECPSDKDKSPESHKAKNEFWIK | 5.12 |
| TSECPSDKDKSPESHKAKNENWIK | 5.12 |
| TSECPSDKDKSPESHKAKNETWIK | 3.97 |
| TSECPSDKDKSPESHKAKNEPWIK | 3.56 |
| TSECPSDKDKSPESHKAKNERWIK | 4.9 |
| TSECPSDKDKSPESHKAKNELWIK | 3.65 |
| TSECPSDKDKSPESHKAKNEIWIK | 4.77 |
| TSECPSDKDKSPESHKAKNEKWIK | 4.84 |
| TSECPSDKDKSPESHKAKNEQWIK | 4.62 |
| TSECPSDKDKSPESHKAKHESWIK | 2.42 |
| TSECPSDKDKSPESHKAKRESWIK | 2.84 |
| TSECPSDKDKSPESHKAKLESWIK | 3.3 |
| TSECPSDKDKSPESHKAKCESWIK | 3.63 |
| TSECPSDKDKSPESHKAKEESWIK | 4.23 |
| TSECPSDKDKSPESHKAKTESWIK | 2.94 |
| TSECPSDKDKSPESHKAKAESWIK | 2.83 |
| TSECPSDKDKSPESHKAKGESWIK | 3.92 |
| TSECPSDKDKSPESHKAKPESWIK | 3.19 |
| TSECPSDKDKSPESHKAKVESWIK | 3.41 |
| TSECPSDKDKSPESHKAKYESWIK | 3.11 |
| TSECPSDKDKSPESHKAKQESWIK | 3.13 |

| Variant | protein stability index |
| --- | --- |
| TSECPSDKDKSPESHKAKDESWIK | 3.99 |
| TSECPSDKDKSPESHKAKMESWIK | 3.64 |
| TSECPSDKDKSPESHKAKFESWIK | 2.87 |
| TSECPSDKDKSPESHKAKIESWIK | 4.02 |
| TSECPSDKDKSPESHKAKSESWIK | 3.97 |
| TSECPSDKDKSPESHKAKWESWIK | 3.46 |
| TSECPSDKDKSPESHKAKNISWIK | 4.38 |
| TSECPSDKDKSPESHKAKNTSWIK | 4.39 |
| TSECPSDKDKSPESHKAKNVSWIK | 3.77 |
| TSECPSDKDKSPESHKAKNGSWIK | 4.3 |
| TSECPSDKDKSPESHKAKNWSWIK | 4.72 |
| TSECPSDKDKSPESHKAKNQSWIK | 4.13 |
| TSECPSDKDKSPESHKAKNLSWIK | 4.56 |
| TSECPSDKDKSPESHKAKNCSWIK | 4.47 |
| TSECPSDKDKSPESHKAKNSSWIK | 4.29 |
| TSECPSDKDKSPESHKAKNPSWIK | 4.83 |
| TSECPSDKDKSPESHKAKNNSWIK | 4.69 |
| TSECPSDKDKSPESHKAKNDSWIK | 4.02 |
| TSECPSDKDKSPESHKAKNASWIK | 5.18 |
| TSECPSDKDKSPESHKAKNKSWIK | 4.37 |
| TSECPSDKDKSPESHKAKNFSWIK | 4.74 |
| TSECPSDKDKSPESHKAKNYSWIK | 4.2 |
| TSECPSDKDKSPESHKAKNRSWIK | 4.09 |

| Variant | protein stability index |
| --- | --- |
| TSECPSDKDKSPESHKAKNHSWIK | 4.51 |
| TSECPSDKDKSPESHKAKNMSWIK | 3.05 |
| TSECPSDKDKSPESHKAFNESWIK | 4.09 |
| TSECPSDKDKSPESHKAGNESWIK | 3.9 |
| TSECPSDKDKSPESHKAQNESWIK | 3.9 |
| TSECPSDKDKSPESHKAANESWIK | 3.67 |
| TSECPSDKDKSPESHKAVNESWIK | 3.56 |
| TSECPSDKDKSPESHKAENESWIK | 3.83 |
| TSECPSDKDKSPESHKAWNESWIK | 3.26 |
| TSECPSDKDKSPESHKATNESWIK | 4.02 |
| TSECPSDKDKSPESHKASNESWIK | 4.15 |
| TSECPSDKDKSPESHKAINESWIK | 3.01 |
| TSECPSDKDKSPESHKALNESWIK | 4.18 |
| TSECPSDKDKSPESHKANNESWIK | 3.6 |
| TSECPSDKDKSPESHKAPNESWIK | 3.74 |
| TSECPSDKDKSPESHKACNESWIK | 4.37 |
| TSECPSDKDKSPESHKAHNESWIK | 4.03 |
| TSECPSDKDKSPESHKAMNESWIK | 3.77 |
| TSECPSDKDKSPESHKAYNESWIK | 4.32 |
| TSECPSDKDKSPESHKARNESWIK | 3.51 |
| TSECPSDKDKSPESHKADNESWIK | 3.84 |
| TSECPSDKDKSPESHKCKNESWIK | 3.6 |
| TSECPSDKDKSPESHKFKNESWIK | 3.42 |

| Variant | protein stability index |
| --- | --- |
| TSECPSDKDKSPESHKKKNESWIK | 2.93 |
| TSECPSDKDKSPESHKMKNESWIK | 2.93 |
| TSECPSDKDKSPESHKQKNESWIK | 3.64 |
| TSECPSDKDKSPESHKDKNESWIK | 3.88 |
| TSECPSDKDKSPESHKGKNESWIK | 3.27 |
| TSECPSDKDKSPESHKSKNESWIK | 3.48 |
| TSECPSDKDKSPESHKPKNESWIK | 3.07 |
| TSECPSDKDKSPESHKHKNESWIK | 3.29 |
| TSECPSDKDKSPESHKVKNESWIK | 3.37 |
| TSECPSDKDKSPESHKYKNESWIK | 3.5 |
| TSECPSDKDKSPESHKWKNESWIK | 3.5 |
| TSECPSDKDKSPESHKTKNESWIK | 3.14 |
| TSECPSDKDKSPESHKEKNESWIK | 3.88 |
| TSECPSDKDKSPESHKLKNESWIK | 3.64 |
| TSECPSDKDKSPESHKRKNESWIK | 2.6 |
| TSECPSDKDKSPESHKIKNESWIK | 4.17 |
| TSECPSDKDKSPESHKNKNESWIK | 3.56 |
| TSECPSDKDKSPESHKAKNESWIY | 3.16 |
| TSECPSDKDKSPESHKAKNESWIS | 3.48 |
| TSECPSDKDKSPESHKAKNESWIN | 3.17 |
| TSECPSDKDKSPESHKAKNESWID | 2.99 |
| TSECPSDKDKSPESHKAKNESWIM | 2.76 |
| TSECPSDKDKSPESHKAKNESWIR | 3.92 |

| Variant | protein stability index |
| --- | --- |
| TSECPSDKDKSPESHKAKNESWII | 2.69 |
| TSECPSDKDKSPESHKAKNESWIL | 2.66 |
| TSECPSDKDKSPESHKAKNESWIG | 3.77 |
| TSECPSDKDKSPESHKAKNESWIF | 3.37 |
| TSECPSDKDKSPESHKAKNESWIQ | 2.27 |
| TSECPSDKDKSPESHKAKNESWIW | 3.43 |
| TSECPSDKDKSPESHKAKNESWIC | 3.2 |
| TSECPSDKDKSPESHKAKNESWIP | 4.73 |
| TSECPSDKDKSPESHKAKNESWIE | 2.15 |
| TSECPSDKDKSPESHKAKNESWIH | 3.56 |
| TSECPSDKDKSPESHKAKNESWIA | 2.9 |
| TSECPSDKDKSPESHKAKNESWIT | 3.18 |
| TSECPSDKDKSPESHKAKNESWIV | 2.96 |
| TSECPSDKDKSPESHVAKNESWIK | 3.95 |
| TSECPSDKDKSPESHYAKNESWIK | 3.6 |
| TSECPSDKDKSPESHSAKNESWIK | 3.79 |
| TSECPSDKDKSPESHWAKNESWIK | 3.33 |
| TSECPSDKDKSPESHQAKNESWIK | 3.29 |
| TSECPSDKDKSPESHRAKNESWIK | 3.02 |
| TSECPSDKDKSPESHTAKNESWIK | 4.35 |

Variants of: B2
Experiment: as above
Details: c terminus: a fixed tail appended

| Variant | protein stability index |
| --- | --- |
| FFDMDKSLLCLLCSNSQEHGAHKH | 2.23 |
| FHDMDKSLLCLLCSNSQEHGAHKH | 2.22 |
| FMDMDKSLLCLLCSNSQEHGAHKH | 2.31 |
| FEDMDKSLLCLLCSNSQEHGAHKH | 3.4 |
| FLDMDKSLLCLLCSNSQEHGAHKH | 2.21 |
| FDDMDKSLLCLLCSNSQEHGAHKH | 3.65 |
| FGDMDKSLLCLLCSNSQEHGAHKH | 1.77 |
| FKDMDKSLLCLLCSNSQEHGAHKH | 3.4 |
| FIDMDKSLLCLLCSNSQEHGAHKH | 1.8 |
| FNDMDKSLLCLLCSNSQEHGAHKH | 2.58 |
| FADMDKSLLCLLCSNSQEHGAHKH | 1.54 |
| TCDMDKSLLCLLCSNSQEHGAHKH | 3.21 |
| VCDMDKSLLCLLCSNSQEHGAHKH | 3.25 |
| ECDMDKSLLCLLCSNSQEHGAHKH | 4.17 |
| ICDMDKSLLCLLCSNSQEHGAHKH | 2.81 |
| HCDMDKSLLCLLCSNSQEHGAHKH | 3.64 |
| NCDMDKSLLCLLCSNSQEHGAHKH | 3.57 |
| LCDMDKSLLCLLCSNSQEHGAHKH | 3.21 |
| SCDMDKSLLCLLCSNSQEHGAHKH | 3.72 |
| CCDMDKSLLCLLCSNSQEHGAHKH | 3.54 |
| QCDMDKSLLCLLCSNSQEHGAHKH | 3.72 |
| DCDMDKSLLCLLCSNSQEHGAHKH | 3.56 |
| PCDMDKSLLCLLCSNSQEHGAHKH | 3.6 |
| YCDMDKSLLCLLCSNSQEHGAHKH | 1.88 |
| MCDMDKSLLCLLCSNSQEHGAHKH | 3.41 |
| ACDMDKSLLCLLCSNSQEHGAHKH | 3.33 |
| WCDMDKSLLCLLCSNSQEHGAHKH | 2.45 |
| GCDMDKSLLCLLCSNSQEHGAHKH | 3.49 |
| RCDMDKSLLCLLCSNSQEHGAHKH | 3.57 |
| KCDMDKSLLCLLCSNSQEHGAHKH | 3.56 |

From the supplement of paper PMC10567573
